Laboratory results taken from patent US20050084496A1 (GOVERNMENT OF THE UNITED STATES OF AMERICA REP BY THE SECR …, published 2005).

Legend:
[1] = target: T1, glycosylated gp120 (HIV-1SF2 gp120) (HIV-1 SF2, UniProt P03378 32-509, limits assumed, glycosylated); experiment: ELISA, glycosylated and nonglycosylated HIV-1SF2 gp120 on plate, serial dilutions of scytovirin
T1 construct: domain: gp120

sCD4 = target: T2, sCD4 (UniProt P01730 26-394); experiment: ELISA, 100 ng target on plate, detected with anti-scytovirin rabbit polyclonal
T2 construct: Printed only as sCD4 (soluble CD4)

human serum albumin = target: T3, human serum albumin (human, UniProt P02768 25-609); experiment: as above
T3 construct: also called HSA; HAS

BSA = BSA (UniProt P02769 25-607); experiment: as above
BSA, sequence (P02769 25-607 limits assumed): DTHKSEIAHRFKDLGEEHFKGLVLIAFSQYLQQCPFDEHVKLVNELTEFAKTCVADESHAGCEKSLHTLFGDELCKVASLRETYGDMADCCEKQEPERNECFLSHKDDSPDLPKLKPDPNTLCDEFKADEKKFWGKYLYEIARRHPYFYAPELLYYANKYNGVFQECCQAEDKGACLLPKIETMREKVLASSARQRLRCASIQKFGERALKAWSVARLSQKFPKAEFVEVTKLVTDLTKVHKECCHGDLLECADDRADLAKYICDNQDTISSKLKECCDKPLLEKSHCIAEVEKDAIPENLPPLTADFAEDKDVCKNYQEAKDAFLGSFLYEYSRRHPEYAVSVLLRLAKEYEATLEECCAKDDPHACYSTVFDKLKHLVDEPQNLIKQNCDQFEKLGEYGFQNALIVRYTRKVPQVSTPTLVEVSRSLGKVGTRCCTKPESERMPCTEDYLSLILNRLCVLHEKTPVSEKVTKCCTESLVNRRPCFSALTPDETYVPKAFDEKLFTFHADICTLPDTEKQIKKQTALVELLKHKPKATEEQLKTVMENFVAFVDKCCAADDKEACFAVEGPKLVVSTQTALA

T3 sequence (P02768 25-609 limits assumed): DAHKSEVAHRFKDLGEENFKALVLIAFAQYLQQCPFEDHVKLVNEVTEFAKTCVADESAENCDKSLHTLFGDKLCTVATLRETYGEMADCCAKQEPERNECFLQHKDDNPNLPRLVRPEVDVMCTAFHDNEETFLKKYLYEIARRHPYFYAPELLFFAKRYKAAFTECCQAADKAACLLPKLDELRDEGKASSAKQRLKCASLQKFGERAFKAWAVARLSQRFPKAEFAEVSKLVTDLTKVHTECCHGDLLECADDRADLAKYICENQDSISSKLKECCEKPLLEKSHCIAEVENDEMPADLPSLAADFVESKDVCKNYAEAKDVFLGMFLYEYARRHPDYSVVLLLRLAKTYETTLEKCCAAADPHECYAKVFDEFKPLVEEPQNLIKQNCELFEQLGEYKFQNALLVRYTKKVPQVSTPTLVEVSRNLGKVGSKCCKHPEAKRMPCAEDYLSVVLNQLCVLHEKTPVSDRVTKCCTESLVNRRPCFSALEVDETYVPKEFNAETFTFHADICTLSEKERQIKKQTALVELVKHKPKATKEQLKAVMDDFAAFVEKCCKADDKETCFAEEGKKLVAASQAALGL

B1: scytovirin (other)
chain: GSGPTYCWNEANNPGGPNRCSNNKQCDGARTCSSSGFCQGTSRKPDPGPKGPTYCWDEAKNPGGPNRCSNSKQCDGARTCSSSGFCQGTAGHAAA
notes: Natural protein purified from an aqueous extract of cultured Scytonema varium; It has 95 residues, weighs 9,713 Da and has five intrachain disulfides (Cys20-Cys26, Cys32-Cys38, Cys68-Cys74, Cys80-Cys86, Cys7-Cys55); also called wild-type scytovirin; natural scytovirin
binding result [1]: binds
binding result (sCD4): no binding (tested: 100 ng of scytovirin)
binding result (human serum albumin): no binding (tested: 100 ng of scytovirin)
binding result (BSA): no binding (tested: 100 ng of scytovirin)
